B1: NMC-103: mouse monoclonal antibody, IgG1 isotype, binds NMC-P1 (SEQ ID NO:1); VH SEQ ID NO:36, VL SEQ ID NO:37 (antibody, V domains shown)
VH: EVQLQESGGGLVQPGGSLRLSCTTSGFTFTHYYMSWVRQPPGKALEWLGFIRNKAKGYTAEYSASVKGRFTISRDNSQSILYLQMNTLRPEDSATYYCARDIGDNWGQGTLVTVSS
VL: DIVMTQAAFSNPVTLGTSASISCRSSKNLLHSNGITYLYWYLQRPGQSPQLLISRVSNLASGVPNRFSGSESGTDFTLRISRVEAEDVGVYFCAQLLELPYTFGGGTKLEIK
modifications: mAb NMC-103 Heavy Chain Variable Region; mAb NMC-103 Light Chain Variable Region
B2: NMC-204: mouse monoclonal antibody, IgG3 isotype, binds NMC-P2 (SEQ ID NO:2); VH SEQ ID NO:38, VL SEQ ID NO:39 (antibody, V domains shown)
VH: EVQLQESGSVLVRPGASVKLSCKASGDTLSGSWMHWAMQRPGQGLEWIGEIHLNRGTTNYNEKFKGKATVTVDTSSSTAYVDLSSLTSEDSAVYYCARSPGFAYWGQGTLVTVSA
VL: GIVMTQAAPSVPVTPGESVSISCRSSKSLLHSNGNSYLYWFLQRPGQSPQLLIYRMSNLASGVPDRFSGSGSGTAFTLRITRVEAEDVGVYYCMQHLEYPFTFGSGTKLEIK
modifications: mAb NMC-204 Heavy Chain Variable Region; mAb NMC-204 Light Chain Variable Region

Columns and labels:
[1] = test system: Human pancreatic cancer MIAPaCa-2 cells; experiment: Complement-mediated cytotoxicity (CDC) with normal human serum, PI staining; format: cell-based; conditions: antibody 30 μg/ml; NHS 1:10; 2 hours; FIG. 13
Protocol: Methodology used: Cells seeded in 24-well dishes were grown overnight at 37° C. in a humidified atmosphere supplied with 5% CO2-95% air mixture. The following day the cells were thoroughly washed with ice-cold PBS and incubated with HDM2-specific mAb NMC-103 diluted in culture medium containing 1% BSA to a final antibody concentration of 30 μg/ml. After 30 min, NHS was added to the cells at a final concentration of 1:10 in the culture medium with 1%) BSA together with 1% propidium iodide (PI) solution. Cells were then incubated with NHS for 2 hours and images were taken using EVOS FL fluorescent microscope (Life Technologies).

[2] = test system: mouse Lewis Lung cancer LL/2 cells (subcutaneous tumors); experiment: LL/2 syngeneic mouse model of lung cancer; format: in vivo, mouse (C57BL/6); conditions: day 21; 0.4 mg/kg i.p. 3 times a week for 3 weeks, started with tumor cell inoculation; FIG. 16
Protocol: Methodology used (Syngeneic Mouse Models of lung, colon and pancreatic cancer): To investigate the anti-tumor effects of HDM2-specific antibodies on lung, colon and pancreatic tumors in vivo, three well-known syngeneic mouse models of lung, colon and pancreatic cancer were used (Sharma et al, 1999, J. Immunol. 163 (9):5020-5028; McIntyre, 2015, Bioassays 37(8):909-920; Li, et al, 2015, Sci. Rep. 5:7856). Subcutaneous tumors were prepared by implanting either mouse Lewis Lung cancer LL/2 cells (2.5×10^5 cells/mouse), mouse colon cancer MC-38 cells (5×10^5 cells/mouse) or mouse pancreatic cancer Panc-2 cells (2×10^6 cells/mouse) in the right flanks of 8-week-old female C57BL/6 mice (n=6-7). The mice were returned to their respective cages after tumor implantation. From day 7 after tumor implantation, the tumor volumes were measured 2 times/week with a digital caliper. In the case of MC-38 and Panc-2 study, treatment started when the tumors reached an average of 70-80 mm^3. In the case of LL/2 study, tumor cell inoculation and treatment were initiated simultaneously. Mice were micro-chipped and registered following tumor implantation. […]

[3] = biological target: NMC-P3 peptide (SEQ ID NO:3), amino acids 475-491 of HDM2 (Homo sapiens, UniProt Q00987); experiment: Peptide-ELISA, NMC-P3 peptide; format: binding; conditions: 5 μg/ml peptide dried on plate; OD 450 nm
Protocol: Peptide-ELISA Methodology: 5 μg/ml of NMC-P1, NMC-P2 or NMC-P3 peptide antigen was dried onto a 96-well ELISA plate overnight. Plates were then blocked with 5% BSA in 1× phosphate-buffered saline (PBS) (100 ? /well) for 2 hours at room temperature. Microplate wells were then washed 5 times with 300 ? of ice cold 1× PBS. Appropriate dilutions of monoclonal antibodies NMC-103, NMC-204 or NMC-303 in 1% bovine serum albumin (BSA) in PBS solution were then incubated with their corresponding peptides (NMC-P1, NMC-P2 or NMC-P3, respectively) at room temperature. After 2 hours, wells were washed 5 times with 300 ? ? ice-cold PBS/well and 100 ? secondary antibody (HRP-labeled Goat anti-Mouse F(ab′)2 H&L cross-adsorbed secondary antibody (HRP-GaM F(ab′)2), ThermoFisher, Cat. No. A24524) diluted 1:2500 to 1:5000 in PBS-1% BSA solution were added and the incubation continued at room temperature. After 1 hour, the wells were washed again 5 times with 200 ? of ice-cold PBS and 50 μiL of the TMB Substrate Solution (1-StepTM Ultra TMB-ELISA, ThermoFisher, Cat. No. 34028) were added to each well and color was allowed to develop for 30 minutes at room temperature. The reaction was stopped by addition of 50 μ ? ? of stop solution (ThermoFisher, Cat. No. SSO4) to each well and absorbance of each well was read immediately for optical density (OD) at 450 nm.

Molecule	complement-mediated cytotoxicity (nuclear uptake of Propidium Iodide) [1]	tumor volume [2]	binding to NMC-P3 peptide (peptide-ELISA) [3]
B1	triggered complement-mediated cytotoxicity		
B2		1446 mm^3	did not bind

Reference: patent publication US11407840B2, “Antibodies to M(H)DM2/4 and their use in diagnosing and treating cancer” (NomoCan Pharmaceuticals LLC, priority 2017, dated 2022)
